The values that follow come from patent US20170355744A1 (published 2017).

The target in this experiment is T1, Untagged Naglu (human, UniProt P54802 24-743).
T1 construct: also called untagged Naglu protein; alpha-N-acetylglucosaminidase
T1 sequence: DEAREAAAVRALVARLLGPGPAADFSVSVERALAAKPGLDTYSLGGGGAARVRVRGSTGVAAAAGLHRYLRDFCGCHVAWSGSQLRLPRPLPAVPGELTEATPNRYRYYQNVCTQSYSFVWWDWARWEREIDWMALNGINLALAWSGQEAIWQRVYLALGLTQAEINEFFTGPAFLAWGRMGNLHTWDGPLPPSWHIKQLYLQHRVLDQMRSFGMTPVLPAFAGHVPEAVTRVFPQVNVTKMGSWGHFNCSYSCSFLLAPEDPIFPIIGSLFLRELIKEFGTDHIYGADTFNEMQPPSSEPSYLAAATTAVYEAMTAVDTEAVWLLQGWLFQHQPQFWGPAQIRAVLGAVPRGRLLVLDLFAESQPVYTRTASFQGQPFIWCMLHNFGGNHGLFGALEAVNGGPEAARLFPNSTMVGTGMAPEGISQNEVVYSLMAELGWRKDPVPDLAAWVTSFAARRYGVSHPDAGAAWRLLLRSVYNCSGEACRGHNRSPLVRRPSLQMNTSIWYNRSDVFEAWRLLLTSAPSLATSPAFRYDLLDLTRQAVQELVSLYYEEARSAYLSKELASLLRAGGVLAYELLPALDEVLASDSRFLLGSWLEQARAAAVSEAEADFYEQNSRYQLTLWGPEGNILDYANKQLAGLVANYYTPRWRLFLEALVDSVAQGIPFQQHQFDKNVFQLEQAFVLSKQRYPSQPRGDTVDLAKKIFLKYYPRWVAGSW
As to the kind of experiment: IGF2R competitive binding assay (displacement of biotinylated IGF-II from plate-coated IGFIIR domains 10-13). The protocol:
To measure the ability of the Naglu fusion protein constructs to bind to the IGF-II receptor a competitive binding assay is carried out. A fragment of the IGFIIR involved with IGF-II binding (domains 10-13, named protein 1288) is coated onto 96-well plates. Biotinylated IGF-II is incubated with the receptor in the presence of increasing amounts of competitors: either control IGF-II (non-biotinylated), or fusion protein sample (containing an IGF-II-derived GILT epitope tag). Receptor-bound biotinylated IGF-II is detected with streptavidin conjugated to horseradish peroxidase (HRP) and a chemiluminescent HRP substrate. The ability of the fusion protein to inhibit binding of biotinylated IGF-II to the IGFIIR is calculated from inhibition curves and reported as an IC₅₀ value (concentration required to achieve 50% binding inhibition).
For the assay, IGFIIR is coated in a white Reacti-bind plate (Pierce, Cat#437111) at 0.5 μg/well in a volume of 100 μl (69.6 nM/per well) in coating buffer. The plate is sealed and incubated overnight at room temperature. The plate is then washed 3× with wash buffer, blocked with blocking buffer and then washed again 3× with wash buffer (300 μl/well).

B1: fragment of the IGFIIR involved with IGF-II binding (domains 10-13, named protein 1288) (receptor, UniProt P11717 1367-1989, looked up)
chain: TECSFKDGAGNSFDLSSLSRYSDNWEAITGTGDPEHYLINVCKSLAPQAGTEPCPPEAAACLLGGSKPVNLGRVRDGPQWRDGIIVLKYVDGDLCPDGIRKKSTTIRFTCSESQVNSRPMFISAVEDCEYTFAWPTATACPMKSNEHDDCQVTNPSTGHLFDLSSLSGRAGFTAAYSEKGLVYMSICGENENCPPGVGACFGQTRISVGKANKRLRYVDQVLQLVYKDGSPCPSKSGLSYKSVISFVCRPEARPTNRPMLISLDKQTCTLFFSWHTPLACEQATECSVRNGSSIVDLSPLIHRTGGYEAYDESEDDASDTNPDFYINICQPLNPMHGVPCPAGAAVCKVPIDGPPIDIGRVAGPPILNPIANEIYLNFESSTPCLADKHFNYTSLIAFHCKRGVSMGTPKLLRTSECDFVFEWETPVVCPDEVRMDGCTLTDEQLLYSFNLSSLSTSTFKVTRDSRTYSVGVCTFAVGPEQGGCKDGGVCLLSGTKGASFGRLQSMKLDYRHQDEAVVLSYVNGDRCPPETDDGVPCVFPFIFNGKSYEECIIESRAKLWCSTTADYDRDHEWGFCRHSNSYRTSSIIFKCDEDEDIGRPQVFSEVRGCDVTFEWKTKVVCPP
notes: domain: domains 10-13; Coated on the plate at 0.5 ug/well; also called IGF2R
Regarding B1, the binding result is listed as “no binding”.
